For data set [1], the target named is T1, GFP-Pif1 (Saccharomyces cerevisiae, UniProt P07271, G291P).
T1 construct: N-terminal superfolder GFP fusion of nuclear isoform residues 40-859, pRSF-Duet-1, E. coli Rosetta2(DE3), Ni-NTA purified
T1 sequence (P07271 40-859 G291P): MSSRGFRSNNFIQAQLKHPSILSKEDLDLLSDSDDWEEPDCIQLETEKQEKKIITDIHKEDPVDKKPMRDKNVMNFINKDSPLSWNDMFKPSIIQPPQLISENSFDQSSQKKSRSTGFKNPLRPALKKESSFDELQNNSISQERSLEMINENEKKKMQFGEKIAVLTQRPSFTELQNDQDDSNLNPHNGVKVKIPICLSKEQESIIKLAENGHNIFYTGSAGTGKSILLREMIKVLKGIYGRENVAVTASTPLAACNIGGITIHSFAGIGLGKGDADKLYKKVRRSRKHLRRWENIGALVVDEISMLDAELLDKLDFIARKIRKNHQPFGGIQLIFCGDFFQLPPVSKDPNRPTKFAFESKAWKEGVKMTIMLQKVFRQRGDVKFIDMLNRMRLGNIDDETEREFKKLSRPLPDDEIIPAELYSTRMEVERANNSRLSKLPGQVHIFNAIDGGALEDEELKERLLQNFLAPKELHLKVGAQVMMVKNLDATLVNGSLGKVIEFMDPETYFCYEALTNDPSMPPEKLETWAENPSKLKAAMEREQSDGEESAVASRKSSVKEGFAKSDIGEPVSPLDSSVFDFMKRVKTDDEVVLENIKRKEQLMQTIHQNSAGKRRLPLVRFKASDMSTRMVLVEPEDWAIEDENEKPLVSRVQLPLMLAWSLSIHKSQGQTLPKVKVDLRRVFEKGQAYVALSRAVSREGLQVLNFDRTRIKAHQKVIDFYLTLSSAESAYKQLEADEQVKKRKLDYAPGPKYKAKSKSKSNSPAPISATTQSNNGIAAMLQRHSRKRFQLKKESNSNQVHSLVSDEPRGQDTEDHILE
The experiment in a line: ATP hydrolysis, [γ-32P]-ATP TLC, Michaelis-Menten fit. The data set is classed as biochemical. As to conditions: M13 ssDNA 1.5 μM nt, 10 nM Pif1, 5 mM MgCl2, 60 mM KCl, pH 7.5, 30 °C, no RPA; labelled compound as tracer.

The target in data set [2] is T2, GFP-Pif1 K387A (Saccharomyces cerevisiae, UniProt P07271 40-859, K387A).
T2 sequence: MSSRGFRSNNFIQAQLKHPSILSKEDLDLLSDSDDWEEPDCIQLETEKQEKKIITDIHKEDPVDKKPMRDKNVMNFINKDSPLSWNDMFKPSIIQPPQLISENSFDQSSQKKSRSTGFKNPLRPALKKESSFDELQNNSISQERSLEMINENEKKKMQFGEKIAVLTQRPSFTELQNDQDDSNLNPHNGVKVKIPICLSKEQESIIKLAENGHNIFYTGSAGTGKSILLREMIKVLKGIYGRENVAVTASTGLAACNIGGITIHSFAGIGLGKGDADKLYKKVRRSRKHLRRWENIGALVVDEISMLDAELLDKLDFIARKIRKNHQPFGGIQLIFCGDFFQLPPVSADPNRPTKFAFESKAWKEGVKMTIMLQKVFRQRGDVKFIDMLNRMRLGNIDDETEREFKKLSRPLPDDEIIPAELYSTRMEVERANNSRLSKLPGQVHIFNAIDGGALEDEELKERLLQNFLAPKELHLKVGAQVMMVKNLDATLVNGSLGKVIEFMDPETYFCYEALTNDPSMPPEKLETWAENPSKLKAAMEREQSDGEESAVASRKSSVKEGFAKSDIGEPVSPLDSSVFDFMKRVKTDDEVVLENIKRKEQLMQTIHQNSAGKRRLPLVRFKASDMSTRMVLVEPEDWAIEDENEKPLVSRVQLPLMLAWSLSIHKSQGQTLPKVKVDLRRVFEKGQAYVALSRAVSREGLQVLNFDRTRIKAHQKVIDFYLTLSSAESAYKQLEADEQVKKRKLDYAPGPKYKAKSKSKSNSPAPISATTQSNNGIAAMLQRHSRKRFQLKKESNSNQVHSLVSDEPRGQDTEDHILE
Nature of the data set: EMSA; no ATP, 5 mM Mg2+; 35 mM Tris-HCl pH 7.5, 1 mM DTT, 5 mM MgCl2, 60 mM KCl, 0.1 mg/ml BSA, no ATP, 30 min at 30 C; 5 nM ssDNA. Particulars: protein: recombinant; tags: N-terminal superfolder GFP; Ni-NTA purified; label: 5' Alexa647. (In general: Mobility shift assays separate free from complexed probe on a gel.)

Data set [3] deals with T3, GFP-Pif1 L310A (Saccharomyces cerevisiae, UniProt P07271 40-859, L310A).
T3 sequence: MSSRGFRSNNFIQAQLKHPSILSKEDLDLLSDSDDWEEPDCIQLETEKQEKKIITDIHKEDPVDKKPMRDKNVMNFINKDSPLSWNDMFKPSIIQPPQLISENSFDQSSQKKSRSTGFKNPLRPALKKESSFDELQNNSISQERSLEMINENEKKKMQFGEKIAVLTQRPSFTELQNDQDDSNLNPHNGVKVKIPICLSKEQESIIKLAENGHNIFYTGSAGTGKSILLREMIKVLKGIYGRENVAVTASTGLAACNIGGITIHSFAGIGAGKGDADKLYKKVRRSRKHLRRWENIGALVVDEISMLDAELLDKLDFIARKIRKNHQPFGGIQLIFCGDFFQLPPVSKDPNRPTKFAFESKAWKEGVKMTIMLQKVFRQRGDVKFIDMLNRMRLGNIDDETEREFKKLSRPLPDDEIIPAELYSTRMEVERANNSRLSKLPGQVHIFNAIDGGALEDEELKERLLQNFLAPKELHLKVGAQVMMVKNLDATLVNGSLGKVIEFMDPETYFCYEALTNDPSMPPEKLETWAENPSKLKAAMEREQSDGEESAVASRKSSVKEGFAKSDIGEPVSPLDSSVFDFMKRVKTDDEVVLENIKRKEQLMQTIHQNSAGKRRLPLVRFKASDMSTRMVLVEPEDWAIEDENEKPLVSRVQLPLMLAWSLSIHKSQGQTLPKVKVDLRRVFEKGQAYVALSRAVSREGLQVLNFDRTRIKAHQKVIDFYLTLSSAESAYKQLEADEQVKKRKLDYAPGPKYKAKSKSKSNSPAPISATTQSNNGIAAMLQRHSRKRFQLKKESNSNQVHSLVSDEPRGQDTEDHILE
Described as above. As to conditions: protein: recombinant; tags: N-terminal superfolder GFP; Ni-NTA purified; label: 5' Alexa647.

One may read the Km as the concentration of substrate that gives half-maximal velocity. In general, Kd refers to the constant that tells how readily two partners part at equilibrium.

For the molecule `Nc1ncnc2c1ncn2[C@@H]1O[C@H](COP(=O)(O)OP(=O)(O)OP(=O)(O)O)[C@@H](O)[C@H]1O` [ATP], the Michaelis constant (Km) in data set [1] turned out to be 760 ± 290 µM.

B1: 40-nt ssDNA (ssDNA)
DNA: GCTAGCAGTAGCCAGCATCGAACGTACGATCGGTAACGTA
Regarding B1, the Kd in data set [2] was determined as 29 nM; in data set [3], 27.8 nM.

The record behind these values is PMC10279920, “Single-molecule visualization of Pif1 helicase translocation on single-stranded DNA” (The Journal of Biological Chemistry, 2023).
